Earlier results, collected in publication PMC6716120.

Target: hexon (Human adenovirus 5) (UniProt P04133)
Sequence (P04133 2-952): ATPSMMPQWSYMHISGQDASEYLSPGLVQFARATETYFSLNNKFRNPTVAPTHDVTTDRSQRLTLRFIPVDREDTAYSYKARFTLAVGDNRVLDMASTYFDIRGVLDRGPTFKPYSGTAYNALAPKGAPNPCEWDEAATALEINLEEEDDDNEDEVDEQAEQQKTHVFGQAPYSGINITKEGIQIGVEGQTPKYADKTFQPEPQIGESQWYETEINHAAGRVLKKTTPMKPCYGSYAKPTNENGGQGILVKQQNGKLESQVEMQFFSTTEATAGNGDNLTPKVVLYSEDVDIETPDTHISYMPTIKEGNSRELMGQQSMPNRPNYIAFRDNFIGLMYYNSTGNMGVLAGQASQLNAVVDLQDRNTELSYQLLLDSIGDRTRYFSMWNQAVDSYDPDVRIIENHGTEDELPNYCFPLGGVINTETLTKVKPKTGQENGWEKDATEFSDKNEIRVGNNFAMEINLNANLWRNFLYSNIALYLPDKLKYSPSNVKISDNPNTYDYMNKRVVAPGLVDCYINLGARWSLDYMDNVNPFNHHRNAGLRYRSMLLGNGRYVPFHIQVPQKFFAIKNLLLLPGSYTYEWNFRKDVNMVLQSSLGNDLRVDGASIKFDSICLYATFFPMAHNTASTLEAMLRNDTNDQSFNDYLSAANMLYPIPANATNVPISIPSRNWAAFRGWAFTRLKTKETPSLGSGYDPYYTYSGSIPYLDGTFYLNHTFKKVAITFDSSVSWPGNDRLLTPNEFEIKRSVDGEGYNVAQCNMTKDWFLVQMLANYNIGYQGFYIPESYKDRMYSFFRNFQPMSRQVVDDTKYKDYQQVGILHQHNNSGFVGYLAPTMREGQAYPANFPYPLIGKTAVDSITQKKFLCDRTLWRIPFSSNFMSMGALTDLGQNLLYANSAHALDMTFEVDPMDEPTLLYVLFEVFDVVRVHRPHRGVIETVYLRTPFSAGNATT

Chain of coagulation factor X (P00742 41-488): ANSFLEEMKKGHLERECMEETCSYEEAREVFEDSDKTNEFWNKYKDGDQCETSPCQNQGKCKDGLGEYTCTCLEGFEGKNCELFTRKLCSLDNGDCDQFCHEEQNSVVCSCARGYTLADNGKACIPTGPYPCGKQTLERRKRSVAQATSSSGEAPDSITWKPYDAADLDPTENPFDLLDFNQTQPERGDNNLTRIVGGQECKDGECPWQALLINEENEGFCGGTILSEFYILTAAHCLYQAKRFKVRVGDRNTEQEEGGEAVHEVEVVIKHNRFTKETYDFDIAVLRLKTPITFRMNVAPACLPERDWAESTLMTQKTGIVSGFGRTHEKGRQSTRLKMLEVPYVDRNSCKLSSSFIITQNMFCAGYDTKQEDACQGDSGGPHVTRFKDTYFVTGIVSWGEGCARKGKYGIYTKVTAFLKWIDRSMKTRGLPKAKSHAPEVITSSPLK

In the case of “coagulation factor X (from UniProt P00742)”, the Kd is listed as 2 nM.
